Data reported in the Human Domainome abundance scans (Beltran et al. 2025).
± gives the uncertainty stated by the source.

B1: TOX high mobility group box family member 3, residues 256 to 323; numbered along this chain, O15405 (parent)
chain: QKPVSAYALFFRDTQAAIKGQNPNATFGEVSKIVASMWDSLGEEQKQVYKRKTEAAKKEYLKALAAYR

Variants of: B1
Assay: abundance fitness (aPCA) (normalised: wild type 0, dead -1); higher = more abundant; growth selection in yeast, the domain comes from the species named
Settings: Homo sapiens
Work on A6S yielded an abundance fitness of -0.075 ± 0.092. A6L showed an abundance fitness of -0.37 ± 0.086. Work on A6Q yielded an abundance fitness of -0.185 ± 0.17. A6H showed an abundance fitness of -0.597 ± 0.37. Work on A6F yielded an abundance fitness of -0.661 ± 0.16. A6G gave an abundance fitness of -0.168 ± 0.079. For A6Y, the abundance fitness was -0.34 ± 0.17. With A6W the abundance fitness was -0.848 ± 0.13. Work on A6I yielded an abundance fitness of -0.833 ± 0.37. For A6P, the abundance fitness was 0.054 ± 0.059. A6M gave an abundance fitness of -0.316 ± 0.1. A6R showed an abundance fitness of -0.808 ± 0.1. A6V showed an abundance fitness of -0.601 ± 0.084. A6E showed an abundance fitness of 0.156 ± 0.16. Variant A6T has an abundance fitness of -0.6 ± 0.18. For A6C, the abundance fitness was -0.372 ± 0.17. Variant A16C has an abundance fitness of -0.376 ± 0.086. In the case of A16F, the abundance fitness is reported as -0.164 ± 0.11. In the case of A16D, the abundance fitness is reported as 0.068 ± 0.12. Variant A16E has an abundance fitness of 0.158 ± 0.076. For R12M, the abundance fitness was -0.052 ± 0.063. Work on R12I yielded an abundance fitness of -0.221 ± 0.11. Variant R12C has an abundance fitness of -0.457 ± 0.16. For R12K, the abundance fitness was 0.022 ± 0.12. In the case of R12Y, the abundance fitness is reported as -0.135 ± 0.19. R12Q showed an abundance fitness of -0.057 ± 0.094. R12H gave an abundance fitness of 0.062 ± 0.15. R12E gave an abundance fitness of 0.054 ± 0.1. For R12S, the abundance fitness was -0.113 ± 0.064. Variant R12G has an abundance fitness of -0.223 ± 0.067. With R12W the abundance fitness was -0.587 ± 0.12. Variant R12D has an abundance fitness of -0.526 ± 0.23. For R12T, the abundance fitness was -0.146 ± 0.11. Work on R12V yielded an abundance fitness of -0.433 ± 0.1. In the case of R12P, the abundance fitness is reported as -1 ± 0.23. In the case of R12N, the abundance fitness is reported as 0.168 ± 0.093. R12A gave an abundance fitness of -0.116 ± 0.078. With S5E the abundance fitness was -0.022 ± 0.066. Work on S5C yielded an abundance fitness of -0.074 ± 0.11. S5K showed an abundance fitness of -0.166 ± 0.14. S5R showed an abundance fitness of -0.348 ± 0.08. S5W showed an abundance fitness of -0.491 ± 0.14. In the case of S5Q, the abundance fitness is reported as -0.527 ± 0.28. S5G gave an abundance fitness of -0.091 ± 0.052. Work on S5P yielded an abundance fitness of -0.458 ± 0.11. Work on S5D yielded an abundance fitness of 0.101 ± 0.074. With S5V the abundance fitness was -0.693 ± 0.1. Work on S5I yielded an abundance fitness of -0.94 ± 0.39. With S5N the abundance fitness was 0.115 ± 0.16. With S5A the abundance fitness was -0.314 ± 0.066. Variant P3M has an abundance fitness of -0.296 ± 0.096. With P3V the abundance fitness was -0.14 ± 0.088. For P3Q, the abundance fitness was -0.292 ± 0.096. With P3S the abundance fitness was -0.052 ± 0.046. P3H showed an abundance fitness of -0.068 ± 0.059. With P3D the abundance fitness was 0.375 ± 0.15. With P3A the abundance fitness was -0.213 ± 0.057. In the case of P3L, the abundance fitness is reported as -0.145 ± 0.045. Work on P3E yielded an abundance fitness of -0.199 ± 0.2. With P3I the abundance fitness was -0.228 ± 0.096. P3T showed an abundance fitness of -0.142 ± 0.062. Variant P3R has an abundance fitness of -0.157 ± 0.053. With P3C the abundance fitness was -0.342 ± 0.076. In the case of P3F, the abundance fitness is reported as 0.125 ± 0.081. Variant P3Y has an abundance fitness of -0.332 ± 0.12. P3G showed an abundance fitness of 0.033 ± 0.049. Variant P3N has an abundance fitness of -0.163 ± 0.083. In the case of P3K, the abundance fitness is reported as -0.035 ± 0.072. K2L showed an abundance fitness of -0.428 ± 0.066. In the case of K2G, the abundance fitness is reported as -0.344 ± 0.05. In the case of K2E, the abundance fitness is reported as -0.464 ± 0.11. In the case of K2M, the abundance fitness is reported as -0.335 ± 0.083. Variant K2Q has an abundance fitness of -0.337 ± 0.14. K2T gave an abundance fitness of -0.294 ± 0.081. Work on K2R yielded an abundance fitness of -0.273 ± 0.064. K2S showed an abundance fitness of 0.069 ± 0.05. With K2C the abundance fitness was -0.434 ± 0.13. K2H showed an abundance fitness of -0.012 ± 0.12. In the case of K2F, the abundance fitness is reported as -0.083 ± 0.13. Variant K2N has an abundance fitness of -0.005 ± 0.1. K2A gave an abundance fitness of -0.264 ± 0.076. For K2P, the abundance fitness was -0.267 ± 0.085. K2V showed an abundance fitness of -0.201 ± 0.059. K2W gave an abundance fitness of -0.781 ± 0.15. K2I showed an abundance fitness of -0.003 ± 0.043. With K2D the abundance fitness was -0.311 ± 0.14. With F11N the abundance fitness was -0.19 ± 0.13. For F11K, the abundance fitness was -0.205 ± 0.091. In the case of F11D, the abundance fitness is reported as -0.746 ± 0.15. In the case of F11Y, the abundance fitness is reported as -0.278 ± 0.19. F11R gave an abundance fitness of -0.139 ± 0.085. Variant F11L has an abundance fitness of -0.176 ± 0.069. F11V gave an abundance fitness of -0.14 ± 0.07. For F11P, the abundance fitness was -1.17 ± 0.24. Variant F11Q has an abundance fitness of -0.171 ± 0.14. With F11W the abundance fitness was -0.134 ± 0.088. With F11G the abundance fitness was -0.915 ± 0.17. F11I gave an abundance fitness of -0.676 ± 0.43. Work on F11A yielded an abundance fitness of -0.19 ± 0.068. In the case of F11C, the abundance fitness is reported as -0.302 ± 0.13. F11S gave an abundance fitness of -0.264 ± 0.1. Work on F11M yielded an abundance fitness of -0.101 ± 0.071. In the case of Q1T, the abundance fitness is reported as 0.012 ± 0.094. Q1R gave an abundance fitness of -0.087 ± 0.06. For Q1H, the abundance fitness was 0.119 ± 0.09. Q1L gave an abundance fitness of -0.124 ± 0.072. Q1A gave an abundance fitness of -0.474 ± 0.16. Variant Q1W has an abundance fitness of -0.282 ± 0.11. In the case of Q1I, the abundance fitness is reported as -0.035 ± 0.11. Q1C gave an abundance fitness of -0.362 ± 0.14. In the case of Q1K, the abundance fitness is reported as 0.247 ± 0.15. Work on Q1N yielded an abundance fitness of 0.271 ± 0.15. Q1Y gave an abundance fitness of 0.123 ± 0.073. Q1M gave an abundance fitness of 0.137 ± 0.13. Q1F gave an abundance fitness of -0.088 ± 0.13. Q1S showed an abundance fitness of -0.386 ± 0.16. Work on Q1G yielded an abundance fitness of 0.107 ± 0.088. D13F showed an abundance fitness of -0.494 ± 0.12. Variant D13G has an abundance fitness of -0.855 ± 0.22. D13S showed an abundance fitness of -0.516 ± 0.092. Variant D13V has an abundance fitness of -0.344 ± 0.074. Variant D13K has an abundance fitness of -0.646 ± 0.18. For D13A, the abundance fitness was -0.259 ± 0.12. Work on D13N yielded an abundance fitness of -0.462 ± 0.13. D13C showed an abundance fitness of -0.314 ± 0.091. In the case of D13T, the abundance fitness is reported as -0.247 ± 0.089. Work on D13E yielded an abundance fitness of 0.11 ± 0.08. Work on D13H yielded an abundance fitness of -0.235 ± 0.12. In the case of D13I, the abundance fitness is reported as -0.442 ± 0.095. For F10Y, the abundance fitness was 0.047 ± 0.12. Work on F10L yielded an abundance fitness of -0.744 ± 0.1. F10K gave an abundance fitness of -0.946 ± 0.17. For F10Q, the abundance fitness was -0.71 ± 0.19. With F10I the abundance fitness was -0.98 ± 0.34. Work on F10S yielded an abundance fitness of -0.267 ± 0.15. With F10W the abundance fitness was -0.957 ± 0.2. Variant F10T has an abundance fitness of -0.53 ± 0.11. F10R showed an abundance fitness of -0.751 ± 0.1. With F10P the abundance fitness was -0.572 ± 0.28. For F10E, the abundance fitness was -0.635 ± 0.12. With F10D the abundance fitness was -0.752 ± 0.23. In the case of F10N, the abundance fitness is reported as -0.916 ± 0.45. F10G showed an abundance fitness of -0.957 ± 0.14. F10A gave an abundance fitness of -0.981 ± 0.31. For Y7W, the abundance fitness was -0.462 ± 0.098. Y7K gave an abundance fitness of -0.033 ± 0.077. Y7L showed an abundance fitness of -0.547 ± 0.075. Y7P gave an abundance fitness of -0.452 ± 0.16. With Y7R the abundance fitness was -0.244 ± 0.042. Work on Y7T yielded an abundance fitness of -0.679 ± 0.11. For Y7C, the abundance fitness was -0.585 ± 0.19. In the case of Y7F, the abundance fitness is reported as -0.339 ± 0.15. Y7H gave an abundance fitness of -0.199 ± 0.14. Work on Y7A yielded an abundance fitness of -0.498 ± 0.14. With Y7V the abundance fitness was -0.651 ± 0.13. For Y7G, the abundance fitness was -0.33 ± 0.07. With Y7E the abundance fitness was -0.263 ± 0.11. In the case of Y7S, the abundance fitness is reported as -0.404 ± 0.076. In the case of Y7I, the abundance fitness is reported as -0.48 ± 0.14. Variant Y7N has an abundance fitness of 0.007 ± 0.16. In the case of Y7Q, the abundance fitness is reported as -0.212 ± 0.12. Work on T14L yielded an abundance fitness of -0.314 ± 0.064. T14E showed an abundance fitness of -0.292 ± 0.057. Variant T14F has an abundance fitness of -0.99 ± 0.34. With T14K the abundance fitness was 0.066 ± 0.077. Work on T14S yielded an abundance fitness of 0.087 ± 0.077. Work on T14N yielded an abundance fitness of -0.278 ± 0.14.
